Assay [1] relates to Comma-Dβ cells. Briefly: ALDEFLUOR / Sca-1 FACS analysis of Comma-Dβ cell compartments. Type of assay: cell-based, mouse. The settings on record: ectopic expression in Comma-Dβ cells. A general note: Flow cytometry measures light scatter and fluorescence of single cells or particles in a stream.
For assay [2], the system named is miR-205. Briefly: Stem-loop qRT-PCR of mature miRNA in Wnt-1-expressing Comma-Dβ cells. Type of assay: cell-based, mouse. To be noted: data not shown. Here is the method:
1-4 μg of total RNA from sorted cells was used for small RNA cloning performed as described in Pfeffer et al, 2005 (incorporated by reference). Illumina 1G sequencing and analysis was performed as described Stark et al. 2007 (incorporated by reference). miRNA expression analyses mature miRNAs were quantified using the TaqMan MicroRNA Assays previously described by Chen et al., 2005 (Applied Biosystems, incorporated by reference).
Data was normalized to Actin using SuperScript III SYBR Green One-Step qRT-PCR system (Invitrogen). The experiments were repeated twice and all reactions were run in triplicate.
A general note: Quantitative PCR measures a nucleic acid by following its amplification.

B1: Wnt-1: Wnt-1 ectopically expressed from an MSCV-hygro vector (Wnt-1MSCV) (protein, UniProt P04426 28-370, looked up)
Proto-oncogene Wnt-1: ANSSGRWWGIVNIASSTNLLTDSKSLQLVLEPSLQLLSRKQRRLIRQNPGILHSVSGGLQSAVRECKWQFRNRRWNCPTAPGPHLFGKIVNRGCRETAFIFAITSAGVTHSVARSCSEGSIESCTCDYRRRGPGGPDWHWGGCSDNIDFGRLFGREFVDSGEKGRDLRFLMNLHNNEAGRTTVFSEMRQECKCHGMSGSCTVRTCWMRLPTLRAVGDVLRDRFDGASRVLYGNRGSNRASRAELLRLEPEDPAHKPPSPHDLVYFEKSPNFCTYSGRLGTAGTAGRACNSSSPALDGCELLCCGRGHRTRTQRVTERCNCTFHWCCHVSCRNCTHTRVLHECL
Regarding B1, the “increase in the ALDH bright Sca-1 high population” value in assay [1] came to 3.5 fold. Further, the “miR-205 level compared to empty vector control cells” value in assay [2] is reported as 6 fold.
